In patent US20250145690A1 (US Dept. of Health and Human Services, published 2025):

T1: MERS-CoV spike protein (MERS-CoV, UniProt K9N5Q8 18-1291)
T1 sequence: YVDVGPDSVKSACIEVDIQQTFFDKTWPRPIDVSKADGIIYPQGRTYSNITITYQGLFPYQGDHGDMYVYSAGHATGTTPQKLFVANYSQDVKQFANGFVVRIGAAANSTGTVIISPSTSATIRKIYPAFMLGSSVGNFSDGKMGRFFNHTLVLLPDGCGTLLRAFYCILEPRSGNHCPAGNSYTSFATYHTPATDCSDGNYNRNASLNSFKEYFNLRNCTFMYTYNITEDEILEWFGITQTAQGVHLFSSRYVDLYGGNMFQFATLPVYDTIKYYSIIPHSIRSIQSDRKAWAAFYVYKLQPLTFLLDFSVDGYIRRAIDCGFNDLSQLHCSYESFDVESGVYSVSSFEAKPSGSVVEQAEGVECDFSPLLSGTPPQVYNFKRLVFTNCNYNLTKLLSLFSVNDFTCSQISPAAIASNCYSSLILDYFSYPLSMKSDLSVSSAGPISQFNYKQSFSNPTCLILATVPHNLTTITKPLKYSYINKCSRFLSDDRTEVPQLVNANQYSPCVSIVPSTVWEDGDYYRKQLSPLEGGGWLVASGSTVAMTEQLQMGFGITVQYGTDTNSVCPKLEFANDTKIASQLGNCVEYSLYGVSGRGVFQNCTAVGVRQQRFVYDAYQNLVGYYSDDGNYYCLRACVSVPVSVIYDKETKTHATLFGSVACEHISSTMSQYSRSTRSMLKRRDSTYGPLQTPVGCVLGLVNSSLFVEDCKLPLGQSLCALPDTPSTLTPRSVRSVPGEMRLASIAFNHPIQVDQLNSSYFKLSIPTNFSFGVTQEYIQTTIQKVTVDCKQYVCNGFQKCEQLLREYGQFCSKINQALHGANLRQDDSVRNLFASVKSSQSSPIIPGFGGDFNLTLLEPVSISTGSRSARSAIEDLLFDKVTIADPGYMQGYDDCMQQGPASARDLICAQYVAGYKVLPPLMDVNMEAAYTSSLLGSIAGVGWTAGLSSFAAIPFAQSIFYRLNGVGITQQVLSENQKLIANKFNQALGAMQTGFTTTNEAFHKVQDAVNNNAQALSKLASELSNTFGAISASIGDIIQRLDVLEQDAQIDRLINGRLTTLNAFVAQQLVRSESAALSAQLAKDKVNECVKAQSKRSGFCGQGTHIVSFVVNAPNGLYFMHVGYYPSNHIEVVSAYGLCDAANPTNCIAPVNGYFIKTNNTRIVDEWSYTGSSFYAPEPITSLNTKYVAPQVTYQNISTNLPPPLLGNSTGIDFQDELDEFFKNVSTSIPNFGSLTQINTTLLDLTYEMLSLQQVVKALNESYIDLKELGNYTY

T2: HCoV-229E spike protein (Sino Biological 40605-V08B) (HCoV-229E, UniProt P15423 16-1115)
T2 sequence: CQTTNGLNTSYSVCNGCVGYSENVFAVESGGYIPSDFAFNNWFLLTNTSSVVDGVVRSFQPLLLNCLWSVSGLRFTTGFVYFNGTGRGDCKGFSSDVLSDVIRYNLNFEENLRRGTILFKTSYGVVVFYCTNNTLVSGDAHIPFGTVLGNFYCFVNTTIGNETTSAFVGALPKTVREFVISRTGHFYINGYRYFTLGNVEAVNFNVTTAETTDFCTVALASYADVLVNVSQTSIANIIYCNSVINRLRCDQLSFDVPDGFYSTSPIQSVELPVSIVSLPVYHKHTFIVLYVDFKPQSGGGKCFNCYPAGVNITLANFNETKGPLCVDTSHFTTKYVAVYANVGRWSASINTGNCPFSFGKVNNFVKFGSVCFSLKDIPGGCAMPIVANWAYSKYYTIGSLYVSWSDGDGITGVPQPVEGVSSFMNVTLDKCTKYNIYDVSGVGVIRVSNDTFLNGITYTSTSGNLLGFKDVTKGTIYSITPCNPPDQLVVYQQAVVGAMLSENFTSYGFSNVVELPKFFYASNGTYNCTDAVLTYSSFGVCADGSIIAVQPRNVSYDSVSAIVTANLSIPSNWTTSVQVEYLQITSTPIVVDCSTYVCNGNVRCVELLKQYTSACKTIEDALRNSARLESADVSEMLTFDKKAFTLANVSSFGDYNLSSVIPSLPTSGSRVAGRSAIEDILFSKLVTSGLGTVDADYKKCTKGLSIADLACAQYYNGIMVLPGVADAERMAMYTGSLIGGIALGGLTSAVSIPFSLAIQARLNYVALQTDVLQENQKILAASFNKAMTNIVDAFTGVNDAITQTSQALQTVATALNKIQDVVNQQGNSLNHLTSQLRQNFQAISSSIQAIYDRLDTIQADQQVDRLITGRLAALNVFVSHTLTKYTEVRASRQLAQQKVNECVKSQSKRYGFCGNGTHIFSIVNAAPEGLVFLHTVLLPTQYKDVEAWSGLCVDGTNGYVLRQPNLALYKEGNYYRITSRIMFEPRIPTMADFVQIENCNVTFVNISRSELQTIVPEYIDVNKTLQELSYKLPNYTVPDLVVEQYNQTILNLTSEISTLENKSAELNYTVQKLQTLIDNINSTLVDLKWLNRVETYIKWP

T3: HCoV-NL63 spike protein (Sino Biological 40604-V08B) (HCoV-NL63, UniProt Q6Q1S2 19-1296)
T3 sequence: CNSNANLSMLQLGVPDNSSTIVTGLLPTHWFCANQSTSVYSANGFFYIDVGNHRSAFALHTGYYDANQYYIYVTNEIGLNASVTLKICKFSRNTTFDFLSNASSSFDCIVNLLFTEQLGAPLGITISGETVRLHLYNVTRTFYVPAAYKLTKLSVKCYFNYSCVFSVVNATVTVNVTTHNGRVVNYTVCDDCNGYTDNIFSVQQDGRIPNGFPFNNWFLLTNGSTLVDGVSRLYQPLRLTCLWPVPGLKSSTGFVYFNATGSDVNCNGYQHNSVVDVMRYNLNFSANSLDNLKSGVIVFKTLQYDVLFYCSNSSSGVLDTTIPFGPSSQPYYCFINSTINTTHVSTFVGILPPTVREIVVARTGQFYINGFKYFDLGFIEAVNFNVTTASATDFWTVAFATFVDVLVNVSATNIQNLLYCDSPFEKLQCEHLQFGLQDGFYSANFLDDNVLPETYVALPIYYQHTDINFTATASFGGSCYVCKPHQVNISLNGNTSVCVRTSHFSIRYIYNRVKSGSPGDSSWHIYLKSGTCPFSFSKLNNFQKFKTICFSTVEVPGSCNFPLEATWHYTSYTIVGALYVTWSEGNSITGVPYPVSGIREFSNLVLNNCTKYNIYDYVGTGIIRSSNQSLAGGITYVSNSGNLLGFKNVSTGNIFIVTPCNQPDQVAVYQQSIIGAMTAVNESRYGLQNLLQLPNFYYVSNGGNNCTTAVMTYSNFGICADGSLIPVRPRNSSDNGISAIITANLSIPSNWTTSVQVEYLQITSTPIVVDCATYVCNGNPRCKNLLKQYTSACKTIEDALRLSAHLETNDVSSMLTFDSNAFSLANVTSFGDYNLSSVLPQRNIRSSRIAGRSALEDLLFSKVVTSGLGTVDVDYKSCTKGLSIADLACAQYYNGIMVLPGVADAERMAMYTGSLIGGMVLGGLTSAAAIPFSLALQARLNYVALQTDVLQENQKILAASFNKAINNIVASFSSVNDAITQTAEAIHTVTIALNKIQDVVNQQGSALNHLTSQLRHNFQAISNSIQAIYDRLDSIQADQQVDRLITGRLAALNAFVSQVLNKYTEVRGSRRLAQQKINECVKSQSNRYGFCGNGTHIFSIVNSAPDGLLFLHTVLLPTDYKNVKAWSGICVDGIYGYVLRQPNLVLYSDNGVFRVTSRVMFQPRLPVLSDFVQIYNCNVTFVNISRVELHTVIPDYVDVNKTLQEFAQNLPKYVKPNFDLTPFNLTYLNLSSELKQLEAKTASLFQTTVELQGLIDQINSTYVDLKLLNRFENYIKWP

B1: COV49-42 (antibody, V domains shown)
VH: QVHLVQSGAEVKNPGVSVKVSCKASGYTFTTSGITWVRQAPGQGLEWMGWISTYNGNTETAQTFQGRVTMTTDTSTSTAYMELRRLRSDDTAVYYCARVQSVATSSNYFFDYWGQGTRVTVSS
VL: DIQMTQSPSSLSASVGDRVTITCRASQTIDRFLNWYQQKPGKAPKLLIYAASRLQSGVPSRFSGSGSGTTYTLTISSLQPEDFATYFCQQSYSDPRALTFGGGTKVEIK
B2: COV89-03 (antibody, V domains shown)
VH: QVQLQESGPGLVKPSETLSLTCTVSGGSIRSNYWSWIRQPPGKRLEWLGYIYYSGSTNYNPSLKSRVTISVDTSKNQFSLNLSSVTAADTAVYYCVREMPYNWIDPWGQGTLVTVSS
VL: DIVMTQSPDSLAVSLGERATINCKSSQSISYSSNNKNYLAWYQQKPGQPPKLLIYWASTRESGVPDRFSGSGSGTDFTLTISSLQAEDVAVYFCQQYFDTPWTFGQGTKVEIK
B3: COV93-61 (antibody, V domains shown)
VH: EVQLVQSGAEVKKPGESLKISCKGSGYSFTTFWIGWVRQMPGKGLEWVGVIYPDDSDTRYSPSFQGQVTMSADKSINTAYLQWSSLKASDTAVYYCARRNCDAALCYLGTYDYWGQGTVVTVSS
VL: QSALTQPPSASGSPGQSVTISCTGTISDVGRYDFVSWYQHHPGKAPKLIIYEVTKRPSGVPDRFSGSKSGNTASLTVSGLQAEDEADYYCNSYAGHNNFVIFGGGTKLTVL
B4: COV77-02 (antibody, V domains shown)
VH: QVQLVESGGGVVQPGRSLRLSCAASGFTFSDHGMHWVRQAPGKGLQWVALIWYDGSNMFYRDSVKGRFTISRDNSKNTVYLEMSSLRAEDTALYYCARGTDVWSGLSLDALDVWGQGTMVTVSP
VL: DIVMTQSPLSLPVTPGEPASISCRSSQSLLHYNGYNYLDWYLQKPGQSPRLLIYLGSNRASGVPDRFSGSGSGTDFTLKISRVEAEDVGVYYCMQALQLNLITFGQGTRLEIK
B5: COV93-04 (antibody, V domains shown)
VH: QLQLQESGSGLVKPSQTLSLTCVVSGDSISSGGYSWSWIRQQPGKALEWIGYIYHSGVTNYNPSLKSRVTISVDRSTNQFSLKLSSVTAADTAVYYCARDGKYNWFDPWGQGILVTVSS
VL: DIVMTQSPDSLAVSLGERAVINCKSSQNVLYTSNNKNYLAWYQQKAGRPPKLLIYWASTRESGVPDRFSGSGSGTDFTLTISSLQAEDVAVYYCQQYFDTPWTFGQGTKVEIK
B6: COV57-01 (antibody, V domains shown)
VH: QVQLVESGGGVVQPGRSLRLSCTVSGFTFNNYGMHWVRQAPGKGLEWLAVISYEGSKKFYADSLEGRFSISRDSSKNTLYLQMNSLTIEDTAVYFCAKRNSIFWFGEGRKDAFDVWGQGTRVIVSS
VL: DIQLTQSPSSLSASVGDRVTITCRASQTVDNYLNWYQQLPGKAPKLLIHTASTLQSGVPSRFSATSSGTDFTLTISGLQPDDSATYFCQQSYSVPLTFGGGTKVEIKV

Each binder was assayed against SARS-CoV-2 spike N-terminal domain (NTD), recombinant (SARS-CoV-2, UniProt P0DTC2 14-305) (assay: bead flow cytometry, AUC minus CD4).
B1: no binding (tested: 200 µg/mL). B2: no binding (tested: 200 µg/mL). B3: no binding (tested: 200 µg/mL). B4: no binding (tested: 200 µg/mL). B5: no binding (tested: 200 µg/mL).

Each binder was assayed against SARS-CoV-2 spike receptor binding domain (RBD), recombinant (SARS-CoV-2, UniProt P0DTC2 319-541) (assay: bead flow cytometry, AUC minus CD4).
B1: no binding (tested: 200 µg/mL). B2: no binding (tested: 200 µg/mL). B3: no binding (tested: 200 µg/mL). B4: no binding (tested: 200 µg/mL). B5: no binding (tested: 200 µg/mL).

The binders below were run against T4, SARS-CoV-2 spike S2 subunit, recombinant (SARS-CoV-2, UniProt P0DTC2 686-1213) (assay: bead flow cytometry, AUC minus CD4).
T4 construct: domain: S2 subunit
B1: no binding (tested: 200 µg/mL). B4: no binding (tested: 200 µg/mL). B5: no binding (tested: 200 µg/mL).

What follows are binders tested against T1, MERS-CoV spike protein (assay: bead flow cytometry, AUC minus CD4).
B6: no binding (tested: 200 µg/mL).

The binders below were run against T2, HCoV-229E spike protein (Sino …) (assay: bead flow cytometry, AUC minus CD4).
B1: no binding (tested: 200 µg/mL). B2: no binding (tested: 200 µg/mL). B3: no binding (tested: 200 µg/mL). B4: no binding (tested: 200 µg/mL). B5: no binding (tested: 200 µg/mL).

These binders were tested against T3, HCoV-NL63 spike protein (Sino …) (assay: bead flow cytometry, AUC minus CD4).
B6: no binding (tested: 200 µg/mL). B1: no binding (tested: 200 µg/mL). B2: no binding (tested: 200 µg/mL). B3: no binding (tested: 200 µg/mL). B4: no binding (tested: 200 µg/mL). B5: no binding (tested: 200 µg/mL).
